Data as given in FireProtDB (doi:10.1016/j.jmb.2005.07.042).
Several values for one entry are separate records, joined by “and”; a condition that tells them apart may be missing. Identical values can stand only once.

Conditions: Escherichia coli (strain K12), pH 7.4, Thermal, DSC, Pipes 50 mM, reversible: yes (80%), whole UniProt chain shown

B1: Guanylate kinase wild type, P60546 (protein)
chain: MAQGTLYIVSAPSGAGKSSLIQALLKTQPLYDTQVSVSHTTRQPRPGEVHGEHYFFVNHDEFKEMISRDAFLEHAEVFGNYYGTSREAIEQVLATGVDVFLDIDWQGAQQIRQKMPHARSIFILPPSKIELDRRLRGRGQDSEEVIAKRMAQAVAEMSHYAEYDYLIVNDDFDTALTDLKTIIRAERLRMSRQKQRHDALISKLLAD
unfolding enthalpy (calorimetric) (NaCl 250 mM, transition: 3): 36.8 kcal/mol and 70.3 kcal/mol | unfolding enthalpy (calorimetric) (transition: 3): 38.9 kcal/mol and 67.5 kcal/mol | unfolding enthalpy (calorimetric) (transition: 4): 27.3 kcal/mol and 47.8 kcal/mol and 30.8 kcal/mol
